The values below come from patent US20180050058.

Experiment in all cases: pulldown
The subject of data set [1] is Hemagglutinins of 14 non-H5 subtypes (H1-H4, H6-H13, H15, H16; Table 1 strains) (Influenza A virus).
In data set [2] the test system is Hemagglutinin H5N1 A/Hong Kong/483/97 (H-12) (Influenza A virus H5N1 (A/Hong King/483/97)).
Data set [3] deals with Hemagglutinin H5N1 A/Hubei/2010 (HB-16) (Influenza A virus H5N1 (A/Hubei/2010)).
Data set [4] concerns Hemagglutinin H5N1 A/duck/Hunan/795/2002 (HN-8) (Influenza A virus H5N1 (A/duck/Hunan/795/2002)).
The test system of data set [5] is Hemagglutinin H5N2 A/American green-winged teal/California/HKWF609/2007 (A-17) (Influenza A virus H5N2 (A/American green-winged teal/California/HKWF609/2007)).
Data set [6] concerns Hemagglutinin H5N1 A/bar-headed goose/Qinghai/14/2008 (Hg-2) (Influenza A virus H5N1 (A/bar-headed goose/Qinghai/14/2008)).
Data set [7] has as its system Hemagglutinin H5N8 A/duck/NY191255-59/2002 (D-14) (Influenza A virus H5N8 (A/duck/NY191255-59/2002)).
The subject of data set [8] is Hemagglutinin H5N1 A/Cambodia/R0405050/2007 (C-8) (Influenza A virus H5N1 (A/Cambodia/R0405050/2007)).
Data set [9] concerns Hemagglutinin H5N3 A/duck/Hokkaido/167/2007 (HK-12) (Influenza A virus H5N3 (A/duck/Hokkaido/167/2007)).
The subject of data set [10] is Hemagglutinin H5N1 A/Indonesia/5/2005 (IN-3) (Influenza A virus H5N1 (A/Indonesia/5/2005)).
Data set [11] concerns Hemagglutinin H5N1 A/Japanese white-eye/Hong Kong/1038/2006 (JW-1) (Influenza A virus H5N1 (A/Japanese white-eye/Hong Kong/1038/2006)).
Data set [12] relates to Hemagglutinin H5N1 A/Vietnam/1994/2004 (V-16) (Influenza A virus H5N1 (A/Vietnam/1994/2004)).
For data set [13], the system named is Hemagglutinin H5N1 A/Egypt/2321-NAMRU3/2007 (EG-2) (Influenza A virus H5N1 (A/Egypt/2321-NAMRU3/2007)).
For data set [14], the system named is Hemagglutinin H5N1 A/goose/Guiyang/337/2006 (G-8) (Influenza A virus H5N1 (A/goose/Guiyang/337/2006)).

In data set [1], AGTGGGTTCTTGGTGCATCCCAGGAGTACC [A1] returned a binding signal of less than 20%. For the same sequence, the dissociation constant (Kd) in data set [2] was determined as 25.9 nM.
In data set [1], ATTGCAAGGAGAGGCTACGGCTATGACAGA [A8] yielded a binding signal of less than 20%. The sequence further yielded a dissociation constant Kd in data set [3] of 9.4 nM.
Take CTTCTTCCACCCATGCCGGCTGGAGAATCC [A5]: the binding signal in [1] is less than 20%. For the same sequence, the Kd in data set [4] came to 12.4 nM.
Take GCGAGGTTGAGCGTGGGCTACTTGGTTCAT [A11]: the binding signal in data set [1] is less than 20%. This sequence also registered a dissociation constant Kd in [5] of 3.5 nM.
Turning to GGGGTCAACTTTTCCTTTGTCGGTTTT [A2], in data set [1], the binding signal was less than 20%. In data set [6], this sequence yielded an equilibrium dissociation constant (Kd) of 13.4 nM.
TACTTATGTGGGCCGGTGCGTTTGCATTTT [A13] gave a binding signal in data set [1] of less than 20%. This sequence returned a Kd in data set [7] of 0.7 nM.
TCACGCTTTTGGTGCATGCAGAGTTTTGTG [A4] gave a binding signal in data set [1] of less than 20%. The sequence also registered a Kd in data set [8] of 43.6 nM.
Take TGCACGCAGGGGCCGCTTGGGTGGAGAGGC [A12]: the binding signal in data set [1] is less than 20%. This sequence yielded a Kd in [9] of 3.5 nM.
Turning to TGGATTCACGCGGTCTCCGCCCTTGGGTGG [A6], the binding signal in data set [1] was less than 20%. In data set [10], this sequence showed a Kd of 14 nM.
Regarding TGGATTGCACGCAGGGGCCGCTTGGCTGTC [A9], the binding signal in data set [1] is less than 20%. The sequence further showed a Kd in data set [11] of 7.84 nM.
In turn, TGGCAGTGGGTTGAGGGGAAGTCTTATTCG [A3] had a binding signal in [1] of less than 20%. Moreover, in [12], the Kd is 7.57 nM.
TGGGTTTGGAAATTGGGACACAGTGGGGCG [A7] gave a binding signal in [1] of less than 20%. For the same sequence, in data set [13], the Kd worked out at 1.96 nM.
For the sequence TGTCGGGGGAACAATCTGTGTTCGCTTGTC [A10], the binding signal in data set [1] is less than 20%. Moreover, the Kd in data set [14] was found to be 5.74 nM.

Usually Kd stands for the constant that tells how readily two partners part at equilibrium.
